The text below walks through data of the FLAb antibody collection.

To fix the notation:
B1: unnamed (protein)
chain 1: QAYLQQSGAELVRPGASVKMSCKASGYTFTSYNMHWVKQTPRQGLEWIGAIYPGNGDTSYNQKFKGKATLTVDKSSSTAYMQLSSLTSEDSAVYFCARVVYYSNSYWYFDVWGTGTTVTVSA
chain 2: QIVLSQSPAILSASPGEKVTMTCRASSSVSYMHWYQQKPGSSPKPWIYAPSNLASGVPARFSGSGSGTSYSLTISRVEAEDAATYYCQQWSFNPPTFGAGTKLELK
B2: unnamed (protein)
chain 1: QVQLQESGPGLVKPSQTLSLTCSFSGFSLSTSGMGVGWIRQPSGKGLEWLAHIWWDGDESYNPSLKSRLTISKDTSKNQVSLKITSVTAADTAVYFCARNRYDPPWFVDWGQGTLVTVSS
chain 2: DIQMTQSTSSLSASVGDRVTITCRASQDISNYLSWYQQKPGKAVKLLIYYTSKLHSGVPSRFSGSGSGTDYTLTISSLQQEDFATYFCLQGKMLPWTFGQGTKLEIK
B3: unnamed (protein)
chain 1: QVQLQQSGPEVVKPGASVKMSCKASGYTFTSYVIHWVRQKPGQGLDWIGYINPYNDGTDYDEKFKGKATLTSDTSTSTAYMELSSLRSEDTAVYYCAREKDNYATGAWFAYWGQGTLVTVSS
chain 2: DIVMTQSPDSLAVSLGERVTMNCKSSQSLLYSTNQKNYLAWYQQKPGQSPKLLIYWASTRESGVPDRFSGSGSGTDFTLTISSVQAEDVAVYYCQQYYSYRTFGGGTKLEIK
B4: unnamed (protein)
chain 1: EVQLVQSGAEVKKPGESLKISCKGSGYSFSNYWIGWVRQMPGKGLEWMGIIDPSNSYTRYSPSFQGQVTISADKSISTAYLQWSSLKASDTAMYYCARWYYKPFDVWGQGTLVTVSS
chain 2: QSVLTQPPSVSGAPGQRVTISCTGSSSNIGSGYDVHWYQQLPGTAPKLLIYGNSKRPSGVPDRFSGSKSGTSASLAITGLQSEDEADYYCASWTDGLSLVVFGGGTKLTVL
B5: unnamed (protein)
chain 1: EVQLLESGGGLVQPGGSLRLSCAASGFTFSSYAMNWVRQAPGKGLEWVSAITMSGITAYYTDDVKGRFTISRDNSKNTLYLQMNSLRAEDTAVYYCAKEEFLPGTHYYYGMDVWGQGTTVTVSS
chain 2: AIQMTQSPSSLSASVGDRVTITCRASQGIRNDLGWYQQKPGKAPKLLIYSASTLQSGVPSRFSGSGSGTDFTLTISSLQPEDFATYCLQDYNYPWTFGQGTKVEIK
B6: unnamed (protein)
chain 1: EVHLVESGGALVKPGGSLRLSCAASGFSFSKYGMSWVRQAPGKGLEWVATISSSGSRTYYPDSVKGRFTISRDNAKNTLYLQMNSLRAEDTAMYYCSISWDGAMDYWGQGTTVTVSS
chain 2: DVVMTQSPLSLPVTLGQPASISCKSSQSIVHSNGNTYLEWYLQKPGQSPQLLVYKVSNRFSGVPDRFSGSGSGTDFTLKISRVEAEDVGTYYCFQGSLVPWAFGGGTKVEIK

The nature of the data set: patients with anti-drug antibodies; higher = more immunogenic.
Consider B1, for which the “patients with anti-drug antibodies” value came to 1.9%.

B2: the “patients with anti-drug antibodies” value was determined as 37%.

Regarding B3, the “patients with anti-drug antibodies” value turned out to be 15%.

Take B4: the “patients with anti-drug antibodies” value is 6%.

Consider B5, for which the “patients with anti-drug antibodies” value amounted to 2.5%.

On to B6, for which the “patients with anti-drug antibodies” value was found to be 6.2%.
